Laboratory results reported in article PMC12575786 (Nature communications, 2025).

Key:
[1] = molecular target: the molecule itself; test: thioflavin T fluorescence
[2] = molecular target: the molecule itself; test: solution NMR, decay of monomer signals over time

Row | Protein | binding result [1] | binding result [2]
1 | human RIPK1 RHIM-harboring domain (residues 496-583), wild type (domain or fragment, UniProt Q13546 496-583, looked up) HMPSLHNIPVPETNYLGNTPTMPFSSLPPTDESIKYTIYNSTGIQIGAYNYMEIGGTSSSLLDSTNTNFKEEPAAKYQAIFDNTTSLT | binds | 
2 | human RIPK1 RHIM-harboring domain (residues 496-583), N545D variant (domain or fragment, UniProt Q13546 496-583, looked up) HMPSLHNIPVPETNYLGNTPTMPFSSLPPTDESIKYTIYNSTGIQIGAYDYMEIGGTSSSLLDSTNTNFKEEPAAKYQAIFDNTTSLT |  | binds
